Reference: the nanobody polyreactivity screen of Harvey et al. (2022)

Test: yeast display, Sf9 membrane polyspecificity reagent, FACS + sequencing; frameworks hold sequencing errors
How it was run: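 Galactose-induced (36–48 hours) yeast carrying a synthetic nanobody display library were exposed to 10% biotinylated, detergent-solubilized Sf9 membrane reagent at 4 °C for 1 hour. FACS followed streptavidin microbead enrichment, using low and high (top ~1%) gates for expression (anti-HA) and reagent binding (streptavidin). Colony PCR, MiSeq 2 × 250 sequencing and CDR-length filtering followed. Labels for polyreactivity reflect the gate of origin.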

Sequence | polyreactivity (PSR sort gate)
QVQLVESGGGLVQAGGSLRLSCAASGRTFFDYTMGWYRQAPGKERELVAAITGGDGSTYYADSVKGRFTISRDNAKTTVYLQMNSLKPEDTAVYDCAAEYTRTYWYAAMDYWGQGTQVTVSS | low polyreactivity
QVKLVESGGGLVQAGGSLRLSCAASGRIFRYYVMGWYRQAPGKERELVAAITSGGSTYYADSVKGRFTISRDNAKNTVYLQMNSLKPEDTAVYYCNVVGRYGSFRSAEMNYWGQGTQVTVSS | high polyreactivity
QVQLVESGGGLVQAGGSLRLSCAASGSIFGTNAMGWYRQAPGKERELLAAISLSTGSTYYADSVKGRITISRDYAKNTVYLQMNSLKPEDTAVYYCAVRHRYTRAYWGRDYWGQGTQVTVSS | low polyreactivity
QVHLVESGGGLVQAGGSLRLSCAASGRIFYSHAMGWYRQAPGKEREFVAAISWSGGGTYYADSVKGRFTISRDNAKNTVYLQMNSLKPQDTAVYYCAARFRYYGSEYDYWGQGTKVTVSS | low polyreactivity
QVQLVESGGGLVQAGGSLRLSCAASGFTFYKYAMGWYRQAPGKERELVATISWSGARTYYADSVKGRFTISRDNAKNTVYLQMNSLKPEDTAVYYCNARRAYRWKPYTGSAGMDYWGQGTQVTVSS | high polyreactivity
QVQLVESGGGLVQAGGSLRLSCAASGFTFQPYAMGWYRQAPGKERELVAAINWSSGRTYYADSVKGRFTISRDNAKNTVYLEMNCLKPEDTAVYYCNTRSTLGYYWGQGTQVTVSS | high polyreactivity
QVQLVESGGGLVQAGGSLRLSCAASGSTFRANAMGWYRQAPGKERELVAAISWSGGRTYYADSVKGRFTISRDNAKNTVYLQMNSLKPEDTAVYYCAAVTTQYIYSVPYYYWGQGTQVTVSS | high polyreactivity
QVQLVESGGGLVQAAGSLRLSCAASGSIFGVNVMGWYRQAPGKERELVAAITTSGGSTYYADSVKGRFTISRDNAKNTVYLQMNSLKPEDTAVYYCAAEVYYPIFLTFYYRGQGTQVTVSS | high polyreactivity
QDQLVESGGGLVQAGGSLRLSCAASGGTFSLYAKGWYRQAPGKEREFVAAISWRGTSTYYADSVKGRFTISRDNAKNTVYLQMNSLKPEDTAVYYCAARAWHEYGSWVQGTQVTVSS | high polyreactivity
QVQLVESGGGLVQAGGSLRLSCAASGRTFDIYAMGWYRQAPGKERELVAAISSGGSTYYADSVKGRFTISRDNAKNTVYLQINSLKPEDTAVYYCAVRWYDQVSRRGIGYYWGQGSQVTVSS | low polyreactivity
QVQLVESGGGLVQAGGSLRLSCAASGITIWNNAMGWSRQAPGKESELVATISSNGGRTYYADSVKGRFTISRDNAKNTVYLQMNSLKPEDTAVYYCNAARRAYGYNYWGQGTQVTVSS | low polyreactivity
QVQLVESGGGLVQAGGSLRLSCAASGSIFGYYAMGWYRQAPGKERELVAVIRRSSGSTYYADSVKGRITISRDNAKKTVYLQMNSLKPEDTAVFYCASRRYEPIIWHSMDYWGQGTQVTVSS | low polyreactivity
QVQLVESGGRLVQAGGSLRLSCHASGIIFTAYAMGWYRPAPGKERELVAAITWSGGSTYYADSVKGRFTISRDNAKNTVYLQMNSLKPEDTAVYYCNGERPSFPFNYWGQGTQVTVSS | low polyreactivity
QVQLVESGGGLVQAGGSLRLSCAASGRIFNYYAMGWYRQAPGKERELVATISRNGGRTYYADSVKGRFTISRDNAKNTVYLQMNSLKPEDTAVYYCATDGLYRYDYWGQGTQVTVSS | high polyreactivity
QVQLVESGGGLDQAGGSLRLSCAASGSTFSRYAMGWYRQPPGKERELVAAISWRGGSTYYADSVKGRFTISRDNAKNTVYLQMNSLKPEDTAVYYCNKAGFWFVVYKRQEYWGQGTQVTVSS | high polyreactivity
QVQLVESGGGLVQAGGSLRISCAASGLIIAYAMGWYRPAPGKERELVAASSGRDGSTYYADSVKGRFTISRDNAKNTVYLHMNSLKPEATAVYYCAKRISYLPVEMDYWGQGTQLTVSS | low polyreactivity

Sequence | polyreactivity (PSR sort gate)
QVQLVESGGGLVQAGGSLRLSCAASGRIFTVYAMGWYRQAPGQERELVAAISRGGSTYADSVKGRFTISRDNAKISVYLQMNSLKPEDTAVYYCAAVNFRKGEDYWGQGTQVTVSS | high polyreactivity
QVPLVESGGGLVQAGGSLRLSCAASGLTVSSYAMGWYRQAPGKERELVAVFSRTGGSTYYADSVKGRFTISRDNAKNTVYLQMNSLKPEDTAVYYCAARSYNGWRYDSWGQGTQVTVSS | high polyreactivity
QVQLVESGGGLVQAGGSLRLSCAASGRTFSQYAMGWYRQAPGKERELVAAITSAGSTYYADSVKGRFTISRDNAKNTVYLQMKSLKPEDTAVYYCNARGPSRYTGYSSYYWGQGTQVTVSS | high polyreactivity
QFQIVESGGGLVQAGGSLRLSCASSGLIFYKYAMGWYRQAPGKERELVARISYTGGITSYADSVKGRFTISRDNAKNTVYLQMNSLKPEDTAVYYCAARYTRPFGPFDYWGQGTQVTVSS | low polyreactivity
QVQLVESGGGLVQAGGSLRLSCSPSGSILYGNAMGWYRQAPGKERELVAAITSGGSTYYADSVKGRFTISRDNAKNTVYLQMNSLKPEDTAVYYCNTVWATKGDYWGHGTQVTVSS | high polyreactivity
QVQLVESGGGLVQAGGSLRLSCAASGSIFDSNTRGWYRQAPGKERELVAAINWSGGRTYYADSVKGRFTISRDNPNNTVYLQMNSLKPEDTAVYYCARPSYYATYYPQPFGYNYWGQGTQVTVSS | high polyreactivity
QVKLVESGGGLVQAGGSLRLSCAASGRTFPRYAMGWYRQAPGKERELVAVIYGGGTYYADSVKGRFTISRDNAKNTVYLQMNSLKPEDTSVYYCNARSYQSARFRGGYWGQGTQVTVSS | high polyreactivity
QVQLVESGGGLVHAGGSLRLSCAASGSTFDKYAMGWYRQAPGKERELVAAITWGGGSTYYADSVKGRFTISRDYAKNTVYLQMNSLKPEDTAVYYCNAYRVYAWIEYNYWGQGTQVTVSS | low polyreactivity
QVQLVDSGGGLVQAGGSLRLSCAASGFTFTPNAMGWYRQAPGTERELVAAISRRGGSTYYADSVKGRFTISRDNAKNTVYLQMNSLKPEDTAVYYCAASSSGRGGYWGQGTQVTVSS | high polyreactivity
QVQLVESGGGLVQAGGSLRLSCAASGSTFVHYAMGWYRQAPGKERELVADITTGDITNYADSVKGRFTISRDNAKNTVYLQMNSLKPEDTAVYYCAVDHQNSPFHVGRDEYWGQGTQVTVSS | low polyreactivity
QVQLVESGGGLVQAGGSLRLSCAASGGIFYRYAMGWYRQAPGKERELVAAITSSGGSTYYADSVKGRFTISRDNAKNTVYLQMNSLKPEDTAVYYCAADYGYYGAGSYFDRGDYWGQGTQVTVSS | high polyreactivity
QVQLVESGGGLVQAGGSLRLSCAASGFTFAYYAMGWYRQAPGKERELVAAISSRGGSTYADSVKGRFTISRDNAKNTVYLQMNSLKPEDTAVYYCNAVVPRSRYFSWTYDYWGQGTQVTVSS | high polyreactivity
QVQLVESGGGLVQAGGSLRLSCAASGSTFYINTMGRYLQAPGKEREFVAAITWSGGSTYYADSVKGRFTISRDNAKNTVYLQMNSLKPEDTAVYYCAADLYVGDMDYWGQCTQVTVSS | low polyreactivity
QVQLVESGGGLVQAGGSLRLSCAASGRTFDLYAMGWDRQAPGKERELVAAITKGGGSTYYADSVKGRFTISRDNAKNTVYLQMNSLKPEDSAVYYCAARKYKRIYRISSGIGYYWGHGTQVTVSS | high polyreactivity
QVQLVESGGGLVQAGGSLRLTCASSGIIFKLYAMGWYRQAPAKESELVAAITYRGGTTYYADSVKGRFTITRDNAKNTVYLQMNSLKPEDTAVYYCAVAVTSYSSKKLYYWGQGTQVTVSS | low polyreactivity
QVQLVESGGGLVQAGGSLRLSCAASGFSFLQYVMGWYSQAPGKERELFAAITSGGSTYYADSVKGRFTISRDNAKNTVYLQMNSLKPDDTAVYYCATDVADNTFYALYGSDYWGQCTQVTVSS | low polyreactivity
